Measured values: patent publication US20230002480A1

Columns and labels:
Test in all cases: cell-based or functional assay
[1] = target: HIV-1 Env of pseudovirus 191955_A11 (HIV-1)
[2] = target: HIV-1 Env of pseudovirus 235-47 (HIV-1)
[3] = target: HIV-1 Env of pseudovirus 3103.v3.c10 (HIV-1)
[4] = target: HIV-1 Env of pseudovirus 6540.v4.c1 (HIV-1)
[5] = target: HIV-1 Env of pseudovirus 6545.v4.c1 (HIV-1)
[6] = target: HIV-1 Env of pseudovirus BJOX009000.02.4 (HIV-1)
[7] = target: HIV-1 Env of pseudovirus C1080.c03 (HIV-1)
[8] = target: HIV-1 Env of pseudovirus C3347.c11 (HIV-1)
[9] = target: HIV-1 Env of pseudovirus R1166.c01 (HIV-1)
[10] = target: HIV-1 Env of pseudovirus R2184.c04 (HIV-1)
[11] = target: HIV-1 Env of pseudovirus T251-18 (HIV-1)
[12] = target: HIV-1 Env of pseudovirus T255-34 (HIV-1)
[13] = target: HIV-1 Env of pseudovirus X1632_S2_B10 (HIV-1)
[14] = target: HIV-1 Env of pseudovirus X2131_C1_B5 (HIV-1)
[15] = target: HIV-1 Env of pseudovirus 1006_11_C3_1601 (HIV-1)
[16] = target: HIV-1 Env of pseudovirus 1012_11_TC21_3257 (HIV-1)
[17] = target: HIV-1 Env of pseudovirus 1056_10_TA11_1826 (HIV-1)
[18] = target: HIV-1 Env of pseudovirus 249M B10 (HIV-1)
[19] = target: HIV-1 Env of pseudovirus 62357_14_D3_4589 (HIV-1)
[20] = target: HIV-1 Env of pseudovirus 6244_13_B5_4576 (HIV-1)
[21] = target: HIV-1 Env of pseudovirus CAP210.2.00.E8 (HIV-1)
[22] = target: HIV-1 Env of pseudovirus CAP45.2.00.G3 (HIV-1)
[23] = target: HIV-1 Env of pseudovirus Ce0393_C3 (HIV-1)
[24] = target: HIV-1 Env of pseudovirus Ce1176_A3 (HIV-1)
[25] = target: HIV-1 Env of pseudovirus Ce704809221_1B3 (HIV-1)
[26] = target: HIV-1 Env of pseudovirus HIV-0013095-2.11 (HIV-1)
[27] = target: HIV-1 Env of pseudovirus RHPA4259.7 (HIV-1)
[28] = target: HIV-1 Env of pseudovirus SC05_8C11_2344 (HIV-1)
[29] = target: HIV-1 Env of pseudovirus TRJO4551.58 (HIV-1)
[30] = target: HIV-1 Env of pseudovirus TRO.11 (HIV-1)
[31] = target: HIV-1 Env of pseudovirus ZM135M.PL10a (HIV-1)
[32] = target: HIV-1 Env of pseudovirus ZM214M.PL15 (HIV-1)
[33] = target: HIV-1 Env of pseudovirus ZM233M.PB6 (HIV-1)

N49P7.2 (antibody)
IC50 [1]: 44.5 µg/mL | IC80 [1]: > 50 µg/mL | MPI [1]: 56 | IC50 [2]: 0.127 µg/mL | IC80 [2]: 1.03 µg/mL | MPI [2]: 90 | IC50 [3]: 0.222 µg/mL | IC80 [3]: 0.57 µg/mL | MPI [3]: 100 | IC50 [4]: > 50 µg/mL | IC80 [4]: > 50 µg/mL | MPI [4]: 33 | IC50 [5]: > 50 µg/mL | IC80 [5]: > 50 µg/mL | MPI [5]: 4 | IC50 [6]: > 50 µg/mL | IC80 [6]: > 50 µg/mL | MPI [6]: 43 | IC50 [7]: 0.279 µg/mL | IC80 [7]: 1.76 µg/mL | MPI [7]: 100 | IC50 [8]: 0.047 µg/mL | IC80 [8]: 0.154 µg/mL | MPI [8]: 100 | IC50 [9]: 0.267 µg/mL | IC80 [9]: 0.852 µg/mL | MPI [9]: 100 | IC50 [10]: 0.02 µg/mL | IC80 [10]: 0.047 µg/mL | MPI [10]: 100 | IC50 [11]: 0.222 µg/mL | IC80 [11]: 0.741 µg/mL | MPI [11]: 100 | IC50 [12]: 0.167 µg/mL | IC80 [12]: 0.527 µg/mL | MPI [12]: 100 | IC50 [13]: > 50 µg/mL | IC80 [13]: > 50 µg/mL | MPI [13]: 22 | IC50 [14]: 0.161 µg/mL | IC80 [14]: 0.671 µg/mL | MPI [14]: 100

N49P11 (antibody)
IC50 [1]: 2.74 µg/mL | IC80 [1]: 15.3 µg/mL | MPI [1]: 100 | IC50 [2]: 3.88 µg/mL | IC80 [2]: 21.2 µg/mL | MPI [2]: 100 | IC50 [3]: 12.6 µg/mL | IC80 [3]: 26.4 µg/mL | MPI [3]: 100 | IC50 [4]: 3.05 µg/mL | IC80 [4]: 16.3 µg/mL | MPI [4]: 100 | IC50 [5]: 6.47 µg/mL | IC80 [5]: 22.9 µg/mL | MPI [5]: 100 | IC50 [6]: 2.84 µg/mL | IC80 [6]: 10.6 µg/mL | MPI [6]: 100 | IC50 [7]: 0.162 µg/mL | IC80 [7]: 1.45 µg/mL | MPI [7]: 100 | IC50 [8]: 0.055 µg/mL | IC80 [8]: 0.192 µg/mL | MPI [8]: 100 | IC50 [9]: 0.06 µg/mL | IC80 [9]: 0.336 µg/mL | MPI [9]: 100 | IC50 [10]: 0.034 µg/mL | IC80 [10]: 0.12 µg/mL | MPI [10]: 100 | IC50 [11]: 3.05 µg/mL | IC80 [11]: 16.7 µg/mL | MPI [11]: 100 | IC50 [12]: 0.418 µg/mL | IC80 [12]: 3.83 µg/mL | MPI [12]: 100 | IC50 [13]: 9.73 µg/mL | IC80 [13]: 26.1 µg/mL | MPI [13]: 100 | IC50 [14]: 5.36 µg/mL | IC80 [14]: 18.4 µg/mL | MPI [14]: 100

N49P18.1 (antibody)
IC50 [1]: > 50 µg/mL | IC80 [1]: > 50 µg/mL | MPI [1]: 33 | IC50 [2]: 23 µg/mL | IC80 [2]: > 50 µg/mL | MPI [2]: 66 | IC50 [3]: 8.56 µg/mL | IC80 [3]: 32.4 µg/mL | MPI [3]: 93 | IC50 [4]: > 50 µg/mL | IC80 [4]: > 50 µg/mL | MPI [4]: 35 | IC50 [5]: > 50 µg/mL | IC80 [5]: > 50 µg/mL | MPI [5]: 0 | IC50 [6]: 0.418 µg/mL | IC80 [6]: 1.43 µg/mL | MPI [6]: 100 | IC50 [7]: > 50 µg/mL | IC80 [7]: > 50 µg/mL | MPI [7]: 50 | IC50 [8]: 4.2 µg/mL | IC80 [8]: 14.3 µg/mL | MPI [8]: 99 | IC50 [9]: 19.2 µg/mL | IC80 [9]: > 50 µg/mL | MPI [9]: 78 | IC50 [10]: 3.38 µg/mL | IC80 [10]: 11.8 µg/mL | MPI [10]: 100 | IC50 [11]: 23 µg/mL | IC80 [11]: > 50 µg/mL | MPI [11]: 70 | IC50 [12]: 10.4 µg/mL | IC80 [12]: 33.8 µg/mL | MPI [12]: 90 | IC50 [13]: > 50 µg/mL | IC80 [13]: > 50 µg/mL | MPI [13]: 19 | IC50 [14]: 30.4 µg/mL | IC80 [14]: > 50 µg/mL | MPI [14]: 75

VRC01 (antibody)
IC50, titer in TZM.bl cells [15]: 0.15 µg/mL | IC80, titer in TZM.bl cells [15]: 0.39 µg/mL | IC50, titer in TZM.bl cells [16]: 0.12 µg/mL | IC80, titer in TZM.bl cells [16]: 0.32 µg/mL | IC50, titer in TZM.bl cells [17]: 0.92 µg/mL | IC80, titer in TZM.bl cells [17]: 3.28 µg/mL | IC50, titer in TZM.bl cells [2]: 0.04 µg/mL | IC80, titer in TZM.bl cells [2]: 0.17 µg/mL | IC50, titer in TZM.bl cells [18]: 0.13 µg/mL | IC80, titer in TZM.bl cells [18]: 0.46 µg/mL | IC50, titer in TZM.bl cells [3]: 0.93 µg/mL | IC80, titer in TZM.bl cells [3]: 2.49 µg/mL | IC50, titer in TZM.bl cells [19]: 0.96 µg/mL | IC80, titer in TZM.bl cells [19]: 4.68 µg/mL | IC50, titer in TZM.bl cells [20]: 0.21 µg/mL | IC80, titer in TZM.bl cells [20]: 0.53 µg/mL | IC50, titer in TZM.bl cells [4]: > 50 µg/mL | IC80, titer in TZM.bl cells [4]: > 50 µg/mL | IC50, titer in TZM.bl cells [5]: > 50 µg/mL | IC80, titer in TZM.bl cells [5]: > 50 µg/mL | IC50, titer in TZM.bl cells [7]: 3.4 µg/mL | IC80, titer in TZM.bl cells [7]: 14.4 µg/mL | IC50, titer in TZM.bl cells [8]: 0.17 µg/mL | IC80, titer in TZM.bl cells [8]: 0.58 µg/mL | IC50, titer in TZM.bl cells [21]: > 50 µg/mL | IC80, titer in TZM.bl cells [21]: > 50 µg/mL | IC80, titer in TZM.bl cells [22]: > 50 µg/mL | IC50, titer in TZM.bl cells [23]: 0.62 µg/mL | IC80, titer in TZM.bl cells [23]: 2.37 µg/mL | IC50, titer in TZM.bl cells [24]: 2.25 µg/mL | IC80, titer in TZM.bl cells [24]: 8.1 µg/mL | IC50, titer in TZM.bl cells [25]: 0.55 µg/mL | IC80, titer in TZM.bl cells [25]: 2.05 µg/mL | IC50, titer in TZM.bl cells [26]: 0.11 µg/mL | IC80, titer in TZM.bl cells [26]: 0.33 µg/mL | IC50, titer in TZM.bl cells [9]: 1.7 µg/mL | IC80, titer in TZM.bl cells [9]: 4.58 µg/mL | IC50, titer in TZM.bl cells [10]: 0.08 µg/mL | IC80, titer in TZM.bl cells [10]: 0.32 µg/mL | IC50, titer in TZM.bl cells [27]: 0.06 µg/mL | IC80, titer in TZM.bl cells [27]: 0.185 µg/mL | IC50, titer in TZM.bl cells [28]: 0.64 µg/mL | IC80, titer in TZM.bl cells [28]: 1.91 µg/mL | IC80, titer in TZM.bl cells [11]: 11.2 µg/mL | IC50, titer in TZM.bl cells [12]: 0.7 µg/mL | IC80, titer in TZM.bl cells [12]: 2.7 µg/mL | IC50, titer in TZM.bl cells [29]: 0.08 µg/mL | IC80, titer in TZM.bl cells [29]: 0.21 µg/mL | IC50, titer in TZM.bl cells [30]: 0.21 µg/mL | IC80, titer in TZM.bl cells [30]: 0.83 µg/mL | IC50, titer in TZM.bl cells [13]: 0.12 µg/mL | IC80, titer in TZM.bl cells [13]: 0.74 µg/mL | IC50, titer in TZM.bl cells [14]: 0.51 µg/mL | IC80, titer in TZM.bl cells [14]: 1.54 µg/mL | IC50, titer in TZM.bl cells [31]: 0.35 µg/mL | IC80, titer in TZM.bl cells [31]: 2.7 µg/mL | IC50, titer in TZM.bl cells [32]: 0.44 µg/mL | IC80, titer in TZM.bl cells [32]: 2.6 µg/mL | IC50, titer in TZM.bl cells [33]: 2 µg/mL | IC80, titer in TZM.bl cells [33]: 9.3 µg/mL
